According to patent US20140154243A1 (Amgen, published 2014):
Where a chain is given by its changes, count along the chain named.

B1: antibody 1.74.3 (antibody, human IgG2, kappa, V domains shown)
VH: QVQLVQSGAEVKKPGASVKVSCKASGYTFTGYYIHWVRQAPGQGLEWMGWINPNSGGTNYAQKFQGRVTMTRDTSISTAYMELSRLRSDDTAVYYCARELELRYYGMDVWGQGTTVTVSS
VL: DIQMTQSPSSLSASVGDRVTITCRASQSINSDLNWYQQKPGKVPKLLIYVASSLQNGVPSRFSGSGSGTDFTLTISSLQPEDFATYYCQRSYSTPPTFGPGTKVDIKR
notes: also called 1.74.1; 1.74.2
B2: antibody 3.10.1 (antibody, human IgG1, kappa, V domains shown)
VH: QVQLQQWGAGLLKPSETLSLTCAVYGGSFSTYYWSWIRQPPGKGLEWIGEINHSGSTNYNPSLKSRVTISVDTSKNQFSLKLSSVTAADTAVYYCARGGYDFWSGYYDYWGQGTLVTVSS
VL: not shown
notes: also called antibody to HGF ultimately derived from hybridoma 3.10.1
B3: antibody 1.60.1 (antibody, human IgG2, kappa, V domains shown)
VH: QVQLVQSGAEVKKPGASVKVSCKASGYTFTGYYINWVRQAPGQGLEWMGWINPNSGGTNYAQKFQGRVTMTRDTSITTAYMELSRLRADDTAVYYCARELELRYYGMDVWGQGTTVTVSS
VL: DIQMTQSPSSLSVSVGDRVTITCRASQGISSYLAWYQQKPGKVPKLLIYVASTLQSGVPSRFSGSGSGTDFTLTISSLQPEDVATYYCQNYNSDPLTFGGGTKVEIKR
notes: also called antibody to HGF ultimately derived from hybridoma 1.60.1
B4: antibody 1.61.3 (antibody, human IgG2, kappa, V domains shown)
VH: QVQLQESGPGLVKPSQTLSLTCTVSGGSISSDGYYWSWIRQHPGKGLEWIGYIYYSGSTYYNPSLKSRVTISVDTSKNQFSLKLSSVTAADTAVYYCARSHLHYYDSSGYYYGGAFDIWGQGTMVTVSS
VL: DIQMTQSPSSLSASVGDRVTITCQASQDISNYLNWYQQKPGTAPKLLIYGASDLETGVPSRFSGSGSGTDFTFAISSLQPEDIATYYCQQYDNLPYNFGQGTKLEIKR
notes: also called antibody to HGF ultimately derived from hybridoma 1.61.3
B5: antibody 1.24.1 (antibody, human IgG2, kappa, V domains shown)
VH: QVQLVESGGGLVKPGGSLRLSCAASGFTFSDYYMSWIRQAPGKGLEWVSYISSSGSTIYYADSVKGRFTISRDNAKNSLYLQMNSLRAEDTAVYYCARDEYNSGWYVLFDYWGQGTLVTVSS
VL: DIQMTQSPSSVSASVGDRVTITCRASQGISSWLAWYQQKPGKAPNLLIYEASSLQSGVPSRFGGSGSGTDFTLTISSLQPEDFATYYCQQANGFPWTFGQGTKVEIKR
notes: also called antibody to HGF ultimately derived from hybridoma 1.24.1
B6: antibody 1.75.1 (antibody, human IgG2, kappa, V domains shown)
VH: QVQLQESGPGLVKPSQTLSLTCTVSGGSISSGGYYWSWIRQHPGKGLEWIGYIYYSGSTYYNPSLKSRVTISVDTSKNQFSLKVSSVTAADTAVYYCARDPLWFGEFDYYGMDVWGQGTTVTVSS
VL: DIQMTQSPSSLSASVGDRVTITCRASQGIRNDLGWFQQKPGKAPKRLIYAASSLQSGVPSRFSGSGSGTEFTLTISSLQPEDFATYYCLQHDSYPLTFGGGTKVEIKR
notes: also called antibody to HGF ultimately derived from hybridoma 1.75.1
B7: antibody 2.40.1 (antibody, human IgG2, kappa, V domains shown)
VH: QVQLQESGPGLVKPSQTLSLTCTVSGGSISSGGYYWSWIRQHPGKGLEWIGNIYYSGITYYNPSLKSRVTMSVDTSKNQFSLKLSSVTAADTAVYYCARDPLYGDYGFDPWGQGTLVTVSS
VL: B6 VL with F36Y, A50V, D92N
notes: also called antibody to HGF ultimately derived from hybridoma 2.40.1
B8: antibody 1.29.1 (antibody, human IgG2, kappa, V domains shown)
VH: QVQLVESGGGVVQPGRSLRLSCAASGFTFSSYGMHWVRQAPGKGLEWVAVIWYDGSDKYYADSVKGRFTISRDNSKNTLYLQMNSLRAEDTAVYYCAREDYGEGFDYWGQGTLVTVSS
VL: not shown
notes: also called antibody to HGF ultimately derived from hybridoma 1.29.1

target: T1, human hepatocyte growth factor (HGF) (human, UniProt P14210 32-728); assay: cell-based or functional assay
T1 sequence (P14210 32-728 limits assumed): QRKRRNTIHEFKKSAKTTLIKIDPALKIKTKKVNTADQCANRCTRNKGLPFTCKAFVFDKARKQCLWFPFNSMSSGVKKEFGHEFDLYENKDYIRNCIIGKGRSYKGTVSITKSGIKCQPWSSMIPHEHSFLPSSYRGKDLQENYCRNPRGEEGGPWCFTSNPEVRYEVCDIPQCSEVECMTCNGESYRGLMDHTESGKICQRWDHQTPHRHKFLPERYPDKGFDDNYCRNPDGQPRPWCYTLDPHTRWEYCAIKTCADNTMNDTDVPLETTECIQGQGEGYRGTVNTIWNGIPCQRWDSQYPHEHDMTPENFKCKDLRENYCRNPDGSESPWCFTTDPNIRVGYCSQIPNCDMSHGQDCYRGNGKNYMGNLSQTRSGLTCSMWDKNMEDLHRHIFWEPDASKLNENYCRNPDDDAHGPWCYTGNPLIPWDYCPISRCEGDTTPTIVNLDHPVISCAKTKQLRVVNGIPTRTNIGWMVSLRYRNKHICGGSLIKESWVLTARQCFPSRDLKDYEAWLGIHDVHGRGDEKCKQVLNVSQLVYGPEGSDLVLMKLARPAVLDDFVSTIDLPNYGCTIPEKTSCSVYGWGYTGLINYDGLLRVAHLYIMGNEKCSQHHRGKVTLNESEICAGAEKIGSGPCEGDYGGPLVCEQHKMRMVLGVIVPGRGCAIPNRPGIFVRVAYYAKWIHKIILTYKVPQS

Binder	IC50, inhibition of growth/survival of U-87 MG cells
B1	< 100 nM
B2	< 100 nM
B3	< 100 nM
B4	< 100 nM
B5	< 100 nM
B6	< 100 nM
B7	< 100 nM
B8	< 100 nM

target: T2, mouse HGF (mouse, UniProt Q08048 33-728); assay: Western blot, non-reducing and reducing SDS-PAGE
T2 construct: also called recombinant mouse HGF; mHGF
T2 sequence (Q08048 33-728 limits assumed): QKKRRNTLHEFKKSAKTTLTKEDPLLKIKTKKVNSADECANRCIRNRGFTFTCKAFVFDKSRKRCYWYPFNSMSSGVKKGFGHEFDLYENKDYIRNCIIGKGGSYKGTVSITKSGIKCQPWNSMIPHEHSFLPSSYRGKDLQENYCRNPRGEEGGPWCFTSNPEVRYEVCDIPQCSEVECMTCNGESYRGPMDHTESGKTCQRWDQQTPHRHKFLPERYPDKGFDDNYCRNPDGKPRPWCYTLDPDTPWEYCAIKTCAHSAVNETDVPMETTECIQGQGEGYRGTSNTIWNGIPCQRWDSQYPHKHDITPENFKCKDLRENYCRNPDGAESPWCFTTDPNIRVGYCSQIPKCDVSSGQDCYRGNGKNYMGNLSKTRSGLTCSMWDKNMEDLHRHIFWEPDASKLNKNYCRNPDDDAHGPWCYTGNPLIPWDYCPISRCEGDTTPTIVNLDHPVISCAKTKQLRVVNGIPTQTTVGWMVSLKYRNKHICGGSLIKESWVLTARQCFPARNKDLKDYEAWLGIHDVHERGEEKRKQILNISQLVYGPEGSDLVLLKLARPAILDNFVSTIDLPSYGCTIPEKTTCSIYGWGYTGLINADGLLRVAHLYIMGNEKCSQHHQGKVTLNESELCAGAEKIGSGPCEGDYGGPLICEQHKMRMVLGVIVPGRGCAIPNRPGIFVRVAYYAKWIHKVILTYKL
Description: Human HGF and mouse HGF were run on separate lanes of SDS PAGE gels. Human HGF and mouse HGF were each separately run at 100 ng/lane and at 10 ng/lane. Some gels were run under non-reducing conditions and other separate gels were run under reducing conditions using beta-mercaptoethanol. The human HGF and mouse HGF in the SDS PAGE gels were transferred to nitrocellulose membranes. Those membranes were separately incubated with one of the ten antibodies to HGF described in Example 6. Each of the ten antibodies to HGF was separately incubated with nitrocellulose membranes from gels containing human HGF and mouse HGF under reducing and with nitrocellulose membranes from gels containing human HGF and mouse HGF under non-reducing conditions. The membranes were then incubated with a goat anti-human IgG antibody linked to HRP (Pierce, Rockford, Ill., Cat. #31412). Signal from that goat anti-human IgG antibody linked to HRP was detected by […] (ECL™; Amersham Pharmacia Biotech, Piscataway, N.J., Cat. # RPN₂₁₀₆) following the manufacturer's instructions.

Binder	binding result
B3	no binding (tested: 100 ng and 10 ng per lane)
B4	no binding (tested: 100 ng and 10 ng per lane)
B5	no binding (tested: 100 ng and 10 ng per lane)
B6	no binding (tested: 100 ng and 10 ng per lane)
B7	no binding (tested: 100 ng and 10 ng per lane)
B8	no binding (tested: 100 ng and 10 ng per lane)

target: T1, human hepatocyte growth factor (HGF); assay: BIAcore 3000, kinetic method: antibody captured on immobilized Protein G, human HGF (0-100 nM) injected
Source text: The running buffer for those analyses was PBS with 0.005% P20 surfactant (BIAcore, Inc. Piscataway, N.J.). Recombinant Protein G (Pierce, Rockford, Ill.) was immobilized to a research grade CM5 sensor chip (Biacore, Inc. Piscataway, N.J.) via primary amine groups using the Amine Coupling Kit (Biacore, Inc. Piscataway, N.J.), according to the manufacturer's instructions.
In six separate samples, about 200 resonance units (RU) of each of the six antibodies to HGF was separately attached to immobilized Protein G following the manufacturer's instructions. Samples comprising various concentrations (0-100 nM) of human HGF were injected over the bound antibody surface at a flow rate of 50 μl/min for 3 minutes. Antibody binding kinetic parameters including kₐ (association rate constant), kd (dissociation rate constant), and KD (dissociation equilibrium constant) were determined using the BIA evaluation 3.1 computer program (BIAcore, Inc. Piscataway, N.J.). Lower dissociation equilibrium constants indicate greater affinity of the antibody for HGF.

Binder	Kd	koff	kon
B1	~0.36 nM	4.7e-05 s⁻¹	130000 M⁻¹ s⁻¹
B2	~0.47 nM	3e-05 s⁻¹	65000 M⁻¹ s⁻¹
B6	~0.78 nM	2.8e-05 s⁻¹	36000 M⁻¹ s⁻¹
B8	~0.79 nM	4.8e-05 s⁻¹	62000 M⁻¹ s⁻¹

target: T1, human hepatocyte growth factor (HGF); assay: BIAcore 3000, equilibrium/solution method: antibody (0.01-50 nM) incubated with human HGF (0.05 nM and 1 nM), free HGF measured on a chip carrying the same antibody
Description: That method was performed with a BIAcore®3000 (Biacore, Inc., Piscataway, N.J.) using PBS with 0.005% P20 surfactant (BIAcore, Inc. Piscataway, N.J.) as running buffer. The four antibodies to HGF were separately immobilized to research grade CM5 sensor chips (Biacore, Inc. Piscataway, N.J.) via primary amine groups using an Amine Coupling Kit (Biacore, Inc. Piscataway, N.J.) following the manufacturer's instructions.
In separate assays, each of the four antibodies to HGF, over a range of concentrations (from 0.01 nM to 50 nM) was separately incubated with each of two different concentrations (0.05 nM and 1 nM) of human HGF in PBS with 0.005% P-20 and 0.1 mg/mL BSA at room temperature for at least six hours. Each of those samples was then injected over a surface of a CM5 sensor chip onto which the same antibody to HGF had been immobilized. The binding signal obtained was proportional to the free HGF in solution. The dissociation equilibrium constant (KD) was obtained from nonlinear regression analysis of the competition curves using a dual-curve one-site homogeneous binding model (KinExA software, Sapidyne Instruments Inc., Boise Id.).

Binder	Kd
B1	0.041 nM
B8	0.034 nM

target: T2, mouse HGF; assay: FACS bead assay: antibody incubated with the avidin fusion of mouse HGF, captured on biotin-coated beads; FITC anti-avidin (x) against PE goat anti-human F(ab')2 (y)
Description: After incubation, the fusion proteins in each sample were separately captured using biotin-coated beads (Spherotech Inc., Libertyville, Ill., Cat # TP-60-5). The resulting bead-protein complexes were labeled by adding FITC labeled anti-avidin antibody (Vector Lab, Burlingame, Calif., Cat. # SP-2040). The presence of antibodies to HGF was determined by adding phycoerythrin (PE) labeled goat anti-human F(ab′)2 antibody (Southern Biotech Associates, Inc, Birmingham, Ala., Cat #2043-09).
Those samples were then subjected to Fluorescence Activated Cell Sorter (FACS) analysis. Bead complexes labeled by FITC (which indicated the presence of avidin) and/or PE (which indicated the presence of antibody to HGF) were detected on a Becton Dickinson Bioscience FACScan (BD, Franklin Lakes, N.J.).

Binder	binding result
B1	no binding
B2	no binding

target: T1, human hepatocyte growth factor (HGF); assay: neutralization ELISA (left table): inhibition of the binding of soluble Met (2 nM) to plate-coated HGF, detected with biotinylated anti-cMetR antibody and Eu-streptavidin; column head 'IC50 IP (nM)'
Description: (§1) A neutralization ELISA assay was developed to assess whether the antibodies discussed in Example 6 could interrupt Met-HGF binding. Delphia 96-well plates (Cat#: AAAND-0001, Wallac Inc., Gaithersburg, Md.) were coated with HGF by adding 100 μl of HGF at 6.25 μg/ml per well. The plates were incubated at 37° C. for 1 hour or at 4° C. overnight. The plates were then blocked with 5% BSA (Cat#50-61-00, KPL, Gaithersburg, Md.) in PBS containing 0.1% Tween 20 for 1 hour at room temperature with shaking.
(§2) Test samples were prepared by separately mixing soluble Met (2 nM, 0.256 μg/ml) with different concentrations of a particular antibody to HGF being tested. The concentrations tested were: 667 nM, 223 nM, 74.1 nM, 24.7 nM, 8.2 nM, 2.7 nM, 0.91 nM, 0.30 nM, 0.10 nM, and 0.034 nM. A volume of 100 μl of a test sample was added to each well of the plates. The plates were then incubated at 4° C. overnight and then washed 4 times with PBS containing 0.1% Tween 20. Next, 100 μl per well of Biotinylated anti-cMetR antibody (Cat#: BAF358, R&D Systems Inc., Minneapolis, Minn.) at 2 μg/ml, was added. […] The plates were then incubated for 2 hours with shaking, and were washed 4 times with PBS containing 0.1% Tween 20. Eu-streptavidin (1:1000 dilution in Assay buffer) (Cat#1244-360, Wallac Inc., Gaithersburg, Md.) was added and the plates were shaken at room temperature for 1 hour. The plates were then washed 4 times with PBS containing 0.1% Tween 20. Next, 100 μl of enhancement buffer (Wallac Inc., Cat#: 1244-105, Gaithersburg, Md.) was added. After at least for 5 minutes, the plates were read using Europium method on Victor 2 (1420 Multilabel Counter, Wallac Inc., Gaithersburg, Md.).
(§3) Percent inhibition of Met binding to HGF (i.e. neutralization) was calculated and IC₅₀ values were determined using the 4 parameter fit equation Excelfit, Version 2.0.6, (Microsoft Inc, Seattle, Wash.). In the presence of the antibodies to HGF discussed in Examples 6, Met binding to HGF was neutralized.

Binder	IC50
B1	3.7 nM
B2	0.9 nM
B5	2.6 nM
B6	1 nM
B7	1 nM
B8	3.2 nM

target: T1, human hepatocyte growth factor (HGF); assay: neutralization ELISA (right table): inhibition of the binding of soluble Met (2 nM) to plate-coated HGF, detected with biotinylated anti-cMetR antibody and Eu-streptavidin; column head 'IC50 IP (nM)'
Description: as §1, §2, §3

Binder	IC50
B1	2.31 nM
B2	0.37 nM
B4	2.59 nM
B5	9.36 nM
B6	0.72 nM
B8	1.93 nM
